Source: the RNAGym collection of RNA variant scans (doi:10.1073/pnas.2313332121)

B1: TPR t1 (parent)
chain: GACCAAUCUGCCCUCAGAGCUCGAGAACAUCUUCGGAUGCAGAGGAGGCAGGCUUCGGUGGCGCGAUAGCGCCAACGUCCUCAACCUCCAAUGCAUCCCACCACAUGAUGAUGCCUGAAGAGCCUUGGUUUUUUG

Variants of: B1
Test: polymerase ribozyme fitness, log enrichment relative to wild type (log ratio); higher = more active; in vitro selection for triplet polymerase activity
In short: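 In triplicate, a single round of in vitro selection was run on each mutant library, PCR-built and transcribed, covering one subunit of a heterodimeric triplet polymerase ribozyme. Frozen incubation at −7 °C followed annealing with a biotinylated primer, partner subunit and triplets, and extended constructs were then gel-excised, streptavidin-captured and taken through RT-PCR. Fitness is the logarithm of genotype enrichment over wild-type enrichment, from inverse-variance-weighted replicate averages of Illumina-sequenced inputs and outputs. […] only genotypes with ≥10 input reads and ≥1 read per output were kept.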

Row | Variant | polymerase ribozyme fitness (log ratio)
1 | GACCAAUCUGCCCUCAGAGCUCGAGAACAUCUUCGGAUGCAGAGGAGGCAGGCUUCGGUGGCGCGAUAGCGCCUACGUCCUCAACCUCCAAUGCAUCCCACCACAUGAUGAUGCCUGAAGAGCCUUGGUGUUUUG [A74U U130G] | -0.154
2 | GACCAAUCUGCCCUCAGAGCUCGAGAACAUCUUCGGAUGCAGAGGAGGCAGGCUUCGGUGGCGCGAUAGCGCCACCCUCCUCAACCUCCAAUGCAUCCCACCACAUGAUGAUGCCUGAAGAGCCUUGGUUUUUUG [A75C G77C] | -1.58
3 | GACCAAUCUGCCCUCAGAGCUCGAGAACAUCUUCGGAUGCAGAGGAGGCAGGCUUCGGUGGCGCGAUAGCGCCUACGUCCUCAACCUCCAAUGCAUCCCACCAAAUGAUGAUGCCUGAAGAGCCUUGGUUUUUUG [A74U C104A] | -1.82
4 | GACCAAUCUGCCCUCAGAGCUCGAGAACAUCUUCGGAUGCAGAGGAGGCAGGCUUCGGUGGCGCGAUAGCGCCUACGUCCUCAACCUCCAAUGUAUCCCACCACAUGAUGAUGCCUGAAGAGCCUUGGUUUUUUG [A74U C94U] | -0.301
5 | GACCAAUCUGCCCUCAGAGCUCGAGAACAUCUUCGGAUGCAGAGGAGGCAGGCUUCGGUGGCGCGAUAGCGCCGACGUCCUCAACCUCCAAUGCAGCCCACCACAUGAUGAUGCCUGAAGAGCCUUGGUUUUUUG [A74G U96G] | -0.295
6 | GACCAAUCUGCCCUCAGAGCUCGAGAACAUCUUCGGAUGCAGAGGAGGCAGGCUUCGGUGGCGCGAUAGCGCCUACGUCUUCAACCUCCAAUGCAUCCCACCACAUGAUGAUGCCUGAAGAGCCUUGGUUUUUUG [A74U C80U] | -1.18
7 | GACCAAUCUGCCCUCAGAGCUCGAGAACAUCUUCGGAUGCAGAGGAGGCAGGCUUCGGUGGCGCGAUAGCGCCUACGUCCUCAACCUCCAAUGCAUCCGACCACAAGAUGAUGCCUGAAGAGCCUUGGUUUUUUG [A74U C99G U106A] | -6.33
8 | GACCAAUCUGCCCUCAGAGCUCGAGAACAUCUUCGGAUGCAGAGGAGGCAGGCUUCGGUGGCGCGAUAGCGCCGACGUCCUCAACCUCCAAUGCAUCCCACCACAUGAUGAUGCCUUAAGAGCCUUGGUUUUUUG [A74G G117U] | -2.41
9 | GACCAAUCUGCCCUCAGAGCUCGAGAACAUCUUCGGAUGCAGAGGAGGCAGGCUUCGGUGGCGCGAUAGCGCCUACUUCCUCAACCUCCAAUGCAUCUCACGACAUGAUGAUGCCUGAAGAGCCUUGGUUUUUUG [A74U G77U C98U C102G] | -6.8
10 | GACCAAUCUGCCCUCAGAGCUCGAGAACAUCUUCGGAUGCAGAGGAGGCAGGCUUCGGUGGCGCGAUAGCGCCCACGUCCUCAACCUCCAAUGCAUCCCACCACAUGAUGAUGCCUGAACAGCCUUGGUUUUUUG [A74C G120C] | 1.48
11 | GACCAAUCUGCCCUCAGAGCUCGAGAACAUCUUCGGAUGCAGAGGAGGCAGGCUUCGGUGGCGCGAUAGCGCCCACGUCCUCAACCUCCAAUGCAUCCCACCACAUGAUGAUGCCUGAAUAGCCUUGGUUUUUUG [A74C G120U] | 0.00369
12 | GACCAAUCUGCCCUCAGAGCUCGAGAACAUCUUCGGAUGCAGAGGAGGCAGGCUUCGGUGGCGCGAUAGCGCCUACGUCCUCAACCUCUAAUGCAUCCCACCACAUGAUGAUGCCUGAAGAGCCUUGGUUUUUUG [A74U C89U] | -0.535
13 | GACCAAUCUGCCCUCAGAGCUCGAGAACAUCUUCGGAUGCAGAGGAGGCAGGCUUCGGUGGCGCGAUAGCGCCUACGUCCUCAACCUCCAAUGCUUCCCACCACAUGAUGAUGCCUGAAGAGCCUUGGUUUUUUG [A74U A95U] | -0.222
14 | GACCAAUCUGCCCUCAGAGCUCGAGAACAUCUUCGGAUGCAGAGGAGGCAGGCUUCGGUGGCGCGAUAGCGCCUACGUCCUCAACCUCCAAUGCAUCCCACCACAUGAUGAACCCUGCAGAGCCUUGGUUUUUUU [A74U U112A G113C A118C G135U] | -3.34
15 | GACCAAUCUGCCCUCAGAGCUCGAGAACAUCUUCGGAUGCAGAGGAGGCAGGCUUCGGUGGCGCGAUAGCGCCUACGUCCUCAACCUCCAAUGCAUCCCACCACAUGACGAUGCCUGAAGAGCCUUGGUUUUUUG [A74U U109C] | -4.13
16 | GACCAAUCUGCCCUCAGAGCUCGAGAACAUCUUCGGAUGCAGAGGAGGCAGGCUUCGGUGGCGCGAUAGCGCCUACGUCCUCUCCCUCCAAUGCAUCCCACCACAUGAUGAUGCCUGAAUAACCAUGGUUUUUUG [A74U A83U A84C G120U G122A U125A] | -1.84
17 | GACCAAUCUGCCCUCAGAGCUCGAGAACAUCUUCGGAUGCAGAGGAGGCAGGCUUCGGUGGCGCGAUAGCGCCCACGUCCUCAACCUCCAAUGCAUCCCACCACAUGAUCAUGCCUGAAGAGCCUUGGUUUUUUG [A74C G110C] | -4.36
18 | GACCAAUCUGCCCUCAGAGCUCGAGAACAUCUUCGGAUGCAGAGGAGGCAGGCUUCGGUGGCGCGAUAGCGCCCACGUCCUCAACCUCCAAUGCAUCCCACCACAUGAUAAUGCCUGAAGAGCCUUGGUUUUUUG [A74C G110A] | -1.2
19 | GACCAAUCUGCCCUCAGAGCUCGAGAACAUCUUCGGAUGCAGAGGAGGCAGGCUUCGGUGGCGCGAUAGCGCCUACGUCCUCAACUUCCAAUGCAUCCCACCACAUGAUGAUGCCUGAAGAGCCUUGGUUUUUUG [A74U C86U] | -0.818
20 | GACCAAUCUGCCCUCAGAGCUCGAGAACAUCUUCGGAUGCAGAGGAGGCAGGCUUCGGUGGCGCGAUAGCGCCUACGUCCUCAACCUCCAAUACAUCCCACCACAUGAUGAUGCCUGAAGAGACUUGGUUUUUUG [A74U G93A C123A] | -0.279
21 | GACCAAUCUGCCCUCAGAGCUCGAGAACAUCUUCGGAUGCAGAGGAGGCAGGCUUCGGUGGCGCGAUAGCGCCACCGUCCUCAACCUCCAAUGCAUCCCACCACAUGAUGAUGCCUGAAGAGCCUUGGUUUUUUG [A75C] | -0.585

Row | Variant | polymerase ribozyme fitness (log ratio)
22 | GACCAAUCUGCCCUCAGAGCUCGAGAACAUCUUCGGAUGCAGAGGAGGCAGGCUUCGGUGGCGCGAUAGCGCCAGCGUCCUCAACCUCCAAUGCAUCCCACCACAUGAUGAUGCCUGAAGAGCCUUGGUUUUUUG [A75G] | 0.101
23 | GACCAAUCUGCCCUCAGAGCUCGAGAACAUCUUCGGAUGCAGAGGAGGCAGGCUUCGGUGGCGCGAUAGCGCCGACGUCCUCAACCUCCAAUGCAUCCCACCACAUGAUGAUGGCUGAAGAGCCUUGGUUUUUUG [A74G C114G] | -2.02
24 | GACCAAUCUGCCCUCAGAGCUCGAGAACAUCUUCGGAUGCAGAGGAGGCAGGCUUCGGUGGCGCGAUAGCGCCUACGUCCUCAACCUUCAAUGCAUCCCACCACAUGAUGAUGCCAGAAGAGCCUUGGUUUUUUG [A74U C88U U116A] | -3.69
25 | GACCAAUCUGCCCUCAGAGCUCGAGAACAUCUUCGGAUGCAGAGGAGGCAGGCUUCGGUGGCGCGAUAGCGCCUACGUCCUCAAUCUCCAAUGAAUCCCACCACAUGAUGAUGCCUGAAGAGCCUUGGUUUUUUG [A74U C85U C94A] | -1.55
26 | GACCAAUCUGCCCUCAGAGCUCGAGAACAUCUUCGGAUGCAGAGGAGGCAGGCUUCGGUGGCGCGAUAGCGCCUACGUCCUCAACCUCCAAUGCAUCCCACCACAUGAUGAUGCCUGAAGAGCCUUGUUCUUUUG [A74U G128U U130C] | -0.708
27 | GACCAAUCUGCCCUCAGAGCUCGAGAACAUCUUCGGAUGCAGAGGAGGCAGGCUUCGGUGGCGCGAUAGCGCCGACGUCCUCAACCUCGAAUGCAUCCCACCACAUGAUGAUGCCUGAAGAGCCUUGGUUUUUUG [A74G C89G] | -1.41
28 | GACCAAUCUGCCCUCAGAGCUCGAGAACAUCUUCGGAUGCAGAGGAGGCAGGCUUCGGUGGCGCGAUAGCGCCCACGUCCUCAACCUCCCAUGCAUCCCAGCACAUGAUGAUGCCUGAAGAGCCUUGGUUUUUUG [A74C A90C C101G] | -3.22
29 | GACCAAUCUGCCCUCAGAGCUCGAGAACAUCUUCGGAUGCAGAGGAGGCAGGCUUCGGUGGCGCGAUAGCGCCGACGUCCUCAACCUCCAAUGCAUCCCACCACAUGAUGAUGCCUGAAGAGGCUUGGUUUUUUG [A74G C123G] | 1.31
30 | GACCAAUCUGCCCUCAGAGCUCGAGAACAUCUUCGGAUGCAGAGGAGGCAGGCUUCGGUGGCGCGAUAGCGCCGACGUCCUCAACCUCCAAUGCAUCCCACCACAUGAUGAUGCCUGAAGAGUCUUGGUUUUUUG [A74G C123U] | 1.13
31 | GACCAAUCUGCCCUCAGAGCUCGAGAACAUCUUCGGAUGCAGAGGAGGCAGGCUUCGGUGGCGCGAUAGCGCCGACGUCCUCAACCUCCAAUGCAUCGCACCACAUGAUGAUGCCUGAAGAGCCUUGGUUUUUUG [A74G C98G] | -6.09
32 | GACCAAUCUGCCCUCAGAGCUCGAGAACAUCUUCGGAUGCAGAGGAGGCAGGCUUCGGUGGCGCGAUAGCGCCCACGUCCUCAACCUCCAAUGCAUCCCACCACAUGAUGAUGCCUGAAAAGCCUUGGUUUGUAG [A74C G120A U132G U134A] | 0.272
33 | GACCAAUCUGCCCUCAGAGCUCGAGAACAUCUUCGGAUGCAGAGGAGGCAGGCUUCGGUGGCGCGAUAGCGCCUACGUCCUCAACCGCCAAUGCAUCCCACCACAUGAUGAUGCCUGAAGAGCCUUGGUUUUUUG [A74U U87G] | 0.353
34 | GACCAAUCUGCCCUCAGAGCUCGAGAACAUCUUCGGAUGCAGAGGAGGCAGGCUUCGGUGGCGCGAUAGCGCCGACGUCCUCAACCUCCAAUGUAUCCCACCACAUGAUGAUGCCUGAAGAGCCUUGGUUUUUUG [A74G C94U] | 0.88
35 | GACCAAUCUGCCCUCAGAGCUCGAGAACAUCUUCGGAUGCAGAGGAGGCAGGCUUCGGUGGCGCGAUAGCGCCCACGUCCUCAACCUCCAAUACAUCCCACCACAUGAUGAUGCCUGAAGAGCCUUGGUUUUUUG [A74C G93A] | -0.578
36 | GACCAAUCUGCCCUCAGAGCUCGAGAACAUCUUCGGAUGCAGAGGAGGCAGGCUUCGGUGGCGCGAUAGCGCCGACGUCCUCAACCUCCAAUGCAUCCCAUCACAUGAUGAUGCCUGAAGAGCCUUGGUUUUUUG [A74G C101U] | 0.132
37 | GACCAAUCUGCCCUCAGAGCUCGAGAACAUCUUCGGAUGCAGAGGAGGCAGGCUUCGGUGGCGCGAUAGCGCCUACGUCCUCAACCUCCAAUGCAACCCUCCACAUGAUGAUUCCUGAAGAGCCUUGGUUUUUUG [A74U U96A A100U G113U] | -6.78
38 | GACCAAUCUGCCCUCAGAGCUCGAGAACAUCUUCGGAUGCAGAGGAGGCAGGCUUCGGUGGCGCGAUAGCGCCUACGUCCUCAACCUCCAAUGCAUCCCACCACAUGAUGAUGCCGGAAGAGCCUUGGUUUUGUG [A74U U116G U133G] | -2.9
39 | GACCAAUCUGCCCUCAGAGCUCGAGAACAUCUUCGGAUGCAGAGGAGGCAGGCUUCGGUGGCGCGAUAGCGCCUACGUCCUCAACCUCCAAUGCAUCCCACCACAUGAUGAUGCCUAAAGAGCCUUGGUCUUUUG [A74U G117A U130C] | -2.62
40 | GACCAAUCUGCCCUCAGAGCUCGAGAACAUCUUCGGAUGCAGAGGAGGCAGGCUUCGGUGGCGCGAUAGCGCCCACGUCCUCAACCUCCUAUGCAUCCCACCACAUGAUGAUGCCUGAAGAGCCUUGGUUUUUUG [A74C A90U] | -0.572
41 | GACCAAUCUGCCCUCAGAGCUCGAGAACAUCUUCGGAUGCAGAGGAGGCAGGCUUCGGUGGCGCGAUAGCGCCUACGUCCUCAACCUCCAAUGCAUCCCACCACAUGAUGAUACCUGAAGAGCCUUGGUUUUUUG [A74U G113A] | -1.11
42 | GACCAAUCUGCCCUCAGAGCUCGAGAACAUCUUCGGAUGCAGAGGAGGCAGGCUUCGGUGGCGCGAUAGCGCCUACGUCCUCAACCUCCAAUGCAUCCCACCACAUGAUGAUUCCUGAAGAGCCUUGGUUUUUUG [A74U G113U] | -3.37
